Results published in PMC5817203, “Characterization of feedback-resistant mevalonate kinases from the methanogenic archaeons Methanosaeta concilii and Methanocella paludicola” (Microbiology, 2017).

Columns and labels:
[1] = biological target: mevalonate kinase from Methanosaeta concilii GP6 (Methanosaeta concilii GP6); assay: SEC; gel filtration of the purified enzyme; apparent mass compared with the mass calculated from the sequence; column and buffer not told
[2] = biological target: the molecule itself; assay: as above

Row | Molecule | stoichiometry N [1] | stoichiometry N [2]
1 | mevalonate kinase from Methanosaeta concilii GP6 (enzyme) | 4 | 
2 | mevalonate kinase from Methanocella paludicola SANAE (enzyme, UniProt D1YZ39 1-299, looked up, codon-optimised synthetic gene, coding part cloned NdeI/EcoRI into pET-28b(+); No tag removal is described; also called MVK^mpd; mpd; source: E. coli BL21 (DE3), pET-28b(+), purified (His-Trap HP, dialysis)) MTMCSAPGKVFLFGEHAVVYGKRAIACAIDLRTTVEVSRKSRGVHIHSAFKDEPDKNLYIKTAVKRMQKCADIRNVNIAVSSRIPVASGLGSSAAVTVATIGALNEEFSAGLSKKDIAYMAYQTELEVQGAASPTDTFVSTMGGTVVVPDMRTLPPITCGIVVGHTGISKSTSRMVSRVRTLKEKYPDVIDGIMDSIGDISARGEDLIKQNDYRSIGELMNVNQGLLDALGITIPELSLQIYAARQHGAYGAKITGAGGGGCMVAICDDKNCKEIATAIGRSYGDSFISKPTAEGIFIQ |  | 2
